B1: SWI/SNF-related matrix-associated actin-dependent regulator of chromatin subfamily B member 1, residues 181 to 248; numbered along this chain, Q12824 (parent)
chain: SQPEVLVPIRLDMEIDGQKLRDAFTWNMNEKLMTPEMFSEILCDDLDLNPLTFVPAIASAIRQQIESY

± gives the uncertainty stated by the source.

In the series the parent is B1. Briefly: abundance fitness (aPCA) (normalised: wild type 0, dead -1); higher = more abundant; growth selection in yeast, the domain comes from the species named. The conditions noted are these: Homo sapiens.
I9T: the abundance fitness was -0.701 ± 0.21.
For the variant I9P, the abundance fitness was -0.094 ± 0.43.
With I9E, the abundance fitness is -0.904 ± 0.44.
As for I9D, the figure is -0.74 ± 0.2; as for I9Q, -0.868 ± 0.21.
Regarding I9L, the abundance fitness was -0.989 ± 0.28.
The figure for I9R is -1.03 ± 0.23.
Turning to I9F, the abundance fitness is -0.791 ± 0.23.
Consider I9S, for which the abundance fitness was -1.05 ± 0.32.
As to Y68L, the abundance fitness is -0.536 ± 0.15.
For Y68W, the abundance fitness was 0.165 ± 0.073.
Regarding Y68F, the abundance fitness is -0.183 ± 0.18.
Consider Y68Q, for which the abundance fitness was -0.185 ± 0.086.
Y68H: the abundance fitness was -0.093 ± 0.092.
Turning to Y68P, the abundance fitness is -0.473 ± 0.13.
Take D45H: the abundance fitness is -0.143 ± 0.39.
The figure for I15M is -0.667 ± 0.24; for I15G it is -0.97 ± 0.25; for I15Y it is 0.116 ± 0.15.
Take I15S: the abundance fitness was -0.934 ± 0.47.
As for V7P, the figure is -0.753 ± 0.18.
As to V7K, the abundance fitness was -0.906 ± 0.17.
For the variant V7L, the abundance fitness is -0.322 ± 0.055.
Consider V7D, for which the abundance fitness is -0.749 ± 0.23.
In the case of V7S, the abundance fitness is -0.866 ± 0.11.
The figure for V7C is -0.293 ± 0.079; for V7A it is -0.65 ± 0.066; for V7W it is -1 ± 0.18.
L11T: the abundance fitness is -0.057 ± 0.13.
In the case of D22H, the abundance fitness was found to be 0.385 ± 0.15.
D22S: the abundance fitness was -0.21 ± 0.25.
Take D22W: the abundance fitness stood at 0.293 ± 0.3.
On to D22T, for which the abundance fitness came to 0.28 ± 0.077.
Regarding D22R, the abundance fitness is 0.284 ± 0.15.
The figure for A60P is -0.974 ± 0.17; for A60S it is 0.076 ± 0.03; for A60F it is -0.725 ± 0.17.
Consider A60W, for which the abundance fitness was -0.71 ± 0.22.
For A60K, the abundance fitness is -0.214 ± 0.068.
Take A60Y: the abundance fitness is -0.637 ± 0.11.
The figure for A60L is -0.72 ± 0.082; for A60R it is -0.285 ± 0.05.
As for P8M, the abundance fitness is -0.355 ± 0.068.
On to P8T, for which the abundance fitness was -0.177 ± 0.048.
With P8R, the abundance fitness was -0.352 ± 0.037.
For P8S, the abundance fitness is -0.405 ± 0.042.
For the variant P8C, the abundance fitness is -0.736 ± 0.13.
With P8Y, the abundance fitness is -0.55 ± 0.12.
P8G: the abundance fitness was -0.875 ± 0.13.
In the case of P8E, the abundance fitness is -0.197 ± 0.089.
On to Q64A, for which the abundance fitness is -0.354 ± 0.083.
Turning to Q64K, the abundance fitness was -0.97 ± 0.25.
On to Q64Y, for which the abundance fitness is -0.795 ± 0.45.
For the variant Q64E, the abundance fitness was -0.338 ± 0.068.
On to Q64F, for which the abundance fitness is -0.584 ± 0.082.
L20F: the abundance fitness was -0.011 ± 0.1.
Regarding L20V, the abundance fitness was -0.01 ± 0.076.
As to L20H, the abundance fitness was -0.525 ± 0.37.
With L20A, the abundance fitness was -0.671 ± 0.23.
In the case of L20I, the abundance fitness was -0.013 ± 0.14.
Regarding T52Q, the abundance fitness was -0.215 ± 0.1.
As for L46G, the abundance fitness was -0.37 ± 0.12.
For the variant L46E, the abundance fitness was -0.204 ± 0.13.
For L46K, the abundance fitness was 0.211 ± 0.075.
As to L46V, the abundance fitness is -0.746 ± 0.12.
Take E40A: the abundance fitness was 0.038 ± 0.033.
The figure for E40R is 0.042 ± 0.033.
For E40Y, the abundance fitness was -0.33 ± 0.082.
Take E40P: the abundance fitness was -0.794 ± 0.14.
As for E40D, the figure is -0.566 ± 0.089; as for E40K, -0.015 ± 0.055; as for E40N, -0.269 ± 0.11.
As for E40M, the figure is -0.149 ± 0.073.
In the case of E40I, the abundance fitness is -0.419 ± 0.099.
With L6Q, the abundance fitness was -0.217 ± 0.29.
Consider L6A, for which the abundance fitness was -0.219 ± 0.24.
As for L6G, the figure is -0.217 ± 0.089; as for L6V, -0.221 ± 0.18; as for L6R, -0.078 ± 0.06.
As for Q2F, the abundance fitness amounted to 0.392 ± 0.24.
Turning to Q2H, the abundance fitness was -0.266 ± 0.16.
For the variant T34R, the abundance fitness was -0.876 ± 0.17.
Take T34S: the abundance fitness is -0.205 ± 0.073.
As for R62W, the figure is -0.75 ± 0.18; as for R62Q, -0.192 ± 0.083; as for R62I, -0.824 ± 0.21.
As for R62C, the abundance fitness was -0.629 ± 0.15.
The figure for R62P is -0.718 ± 0.2; for C43L it is -0.808 ± 0.083.
For the variant C43S, the abundance fitness is -0.79 ± 0.082.
As for C43M, the abundance fitness was -0.686 ± 0.15.
As for C43W, the figure is -0.497 ± 0.097.
With C43N, the abundance fitness is -1.03 ± 0.19.
For E66P, the abundance fitness was -0.919 ± 0.44.
As for E66D, the figure is -0.073 ± 0.045.
The figure for E66L is -0.229 ± 0.05.
In the case of E66Y, the abundance fitness was -0.09 ± 0.068.
The figure for E66V is -0.142 ± 0.099; for E66I it is -0.276 ± 0.13; for E66Q it is -0.432 ± 0.18.
Regarding P50S, the abundance fitness was -0.389 ± 0.046.
With P50H, the abundance fitness is -0.039 ± 0.082.
For the variant P50G, the abundance fitness is -0.77 ± 0.047.
For P50F, the abundance fitness was -0.285 ± 0.14.
The figure for P50K is 0.138 ± 0.053.
With P50L, the abundance fitness was -0.933 ± 0.17.
As for P50Q, the abundance fitness is -0.508 ± 0.15.
With P50T, the abundance fitness is -0.364 ± 0.093.
As for P50M, the figure is -1.03 ± 0.43.
Regarding P50D, the abundance fitness was -0.986 ± 0.2.
P50R: the abundance fitness was 0.021 ± 0.045.
Regarding P50I, the abundance fitness is -1 ± 0.35.
The figure for P50Y is -0.714 ± 0.15.
In the case of V5D, the abundance fitness is 0.045 ± 0.095.
As for V5W, the figure is -0.312 ± 0.37; as for V5A, -0.086 ± 0.26.
In the case of V5P, the abundance fitness is -0.366 ± 0.2.
Consider V5L, for which the abundance fitness is -0.009 ± 0.08.
As to V5I, the abundance fitness is -0.438 ± 0.23.
With V5R, the abundance fitness was -0.205 ± 0.053.
The figure for V5T is 0.213 ± 0.13.
The figure for Q18T is -0.347 ± 0.11; for Q18P it is -0.93 ± 0.23; for Q18G it is -1.01 ± 0.27.
L42T: the abundance fitness is -0.854 ± 0.13.
In the case of L42E, the abundance fitness is -0.978 ± 0.11.
Regarding L42V, the abundance fitness is -0.111 ± 0.061.
As for L42D, the figure is -0.869 ± 0.19; as for K19W, -0.7 ± 0.5.
As to P3S, the abundance fitness worked out at 0.129 ± 0.052.
P3N: the abundance fitness was determined as 0.214 ± 0.098.
As for P3T, the figure is 0.063 ± 0.067; as for L32W, -0.113 ± 0.061.
Take L32Y: the abundance fitness was 0.061 ± 0.058.
As for L32S, the abundance fitness is 0.059 ± 0.036.
With L32C, the abundance fitness was -0.075 ± 0.075.
Take L32V: the abundance fitness is 0.068 ± 0.031.
On to T25C, for which the abundance fitness is -0.08 ± 0.063.
For T25A, the abundance fitness was -0.172 ± 0.051.
As for T25V, the figure is -0.048 ± 0.036; as for T25G, -0.544 ± 0.049; as for T25Y, -0.326 ± 0.18.
As for T25Q, the abundance fitness is -0.121 ± 0.046.
As for T25D, the figure is 0.021 ± 0.044; as for N29F, -0.736 ± 0.28.
Regarding N29Q, the abundance fitness was -0.476 ± 0.45.
As for N29R, the figure is -0.273 ± 0.23.
The figure for G17C is -0.545 ± 0.12.
On to G17T, for which the abundance fitness is -0.896 ± 0.24.
Regarding G17W, the abundance fitness was -0.897 ± 0.14.
As for G17H, the figure is -0.66 ± 0.23; as for G17V, -1 ± 0.13; as for G17D, -0.745 ± 0.18.
On to G17M, for which the abundance fitness was -1.07 ± 0.27.
Take D12E: the abundance fitness is -0.078 ± 0.15.
Consider D12G, for which the abundance fitness was -0.264 ± 0.5.
D47Y: the abundance fitness was -0.401 ± 0.12.
In the case of D47W, the abundance fitness was -0.507 ± 0.12.
As for D47L, the figure is -0.425 ± 0.056; as for D47S, -0.101 ± 0.048; as for D47H, -0.018 ± 0.053.
In the case of D47G, the abundance fitness stood at 0.053 ± 0.038.
Regarding N49G, the abundance fitness is -0.735 ± 0.11.
Consider N49M, for which the abundance fitness was -0.846 ± 0.13.
For the variant N49H, the abundance fitness was -0.355 ± 0.14.
As for N49W, the abundance fitness was -0.783 ± 0.13.
With N49T, the abundance fitness was -0.874 ± 0.076.

(Values after the Human Domainome abundance scans (Beltran et al. 2025).)
